Molecular target: Cre recombinase (UniProt P06956 P06956:1-343)
Assay: cell_activity; Lox66 partner site of Lox71 in same experiment; full-length ABCA4 mRNA relative to the pair without Cre
Conditions: tags: NLS; expressed from the 5' ABCA4 vector after T2A self-cleavage; chain copies: 4
Description: We quantified the expression levels of full-length ABCA4 mRNA in cells transfected with various plasmids.

Sequence of Cre recombinase (P06956 whole entry, one chain of several): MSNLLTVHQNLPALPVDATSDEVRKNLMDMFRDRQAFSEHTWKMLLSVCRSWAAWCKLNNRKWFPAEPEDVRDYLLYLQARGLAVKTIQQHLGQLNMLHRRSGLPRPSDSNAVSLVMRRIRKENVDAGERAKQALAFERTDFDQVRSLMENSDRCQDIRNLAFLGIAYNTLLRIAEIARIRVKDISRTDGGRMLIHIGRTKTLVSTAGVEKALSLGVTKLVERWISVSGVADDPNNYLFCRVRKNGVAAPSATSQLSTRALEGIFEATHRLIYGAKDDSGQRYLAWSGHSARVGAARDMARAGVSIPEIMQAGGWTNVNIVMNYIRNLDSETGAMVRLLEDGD

B1: Lox66 (dsDNA)
DNA 1: ATAACTTCGTATAATGTATGCTATACGAACGGTA
DNA 2: TACCGTTCGTATAGCATACATTATACGAAGTTAT
Which activity does the source give for B1 here?
Its activity is ~55 fold.
